Data reported in paper PMC12416549 (2024).
Positions count from the first letter of the chain named. Names may count otherwise.

Molecular target: T1, TNFR1 (Homo sapiens, UniProt P19438)
T1 chain: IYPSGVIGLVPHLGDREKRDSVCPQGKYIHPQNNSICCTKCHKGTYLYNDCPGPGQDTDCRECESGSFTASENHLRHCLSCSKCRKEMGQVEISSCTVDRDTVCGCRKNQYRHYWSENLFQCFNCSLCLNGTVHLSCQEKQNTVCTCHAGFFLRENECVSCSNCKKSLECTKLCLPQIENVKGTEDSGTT
Test: yeast display SC50

B1: A9C (designed binder)
chain: SMEEEVEKCAKEYEKKKKEAIEKHLEKLKAKDKEAAERFLKELEEAAKEYAKDEAKTMSEEEAKRRAKKYKEKVLLSELSEEEQKEIKEAEEKLVRTILKYVEEAAK
apparent Kd (screen): 0.446 nM

B2: A106D (designed binder)
chain: B1 chain with C9A, A106D
apparent Kd (screen): 0.79 nM

B3: V95C (designed binder)
chain: B1 chain with C9A, V95C
apparent Kd (screen): 11.4 nM

B4: K29E (designed binder)
chain: B1 chain with C9A, K29E
apparent Kd (screen): 0.869 nM

B5: K73I (designed binder)
chain: B1 chain with C9A, K73I
apparent Kd (screen): 2.73 nM

B6: V6Q (designed binder)
chain: B1 chain with V6Q, C9A
apparent Kd (screen): 6.43 nM

B7: E42C (designed binder)
chain: B1 chain with C9A, E42C
apparent Kd (screen): 22.2 nM

B8: K68N (designed binder)
chain: B1 chain with C9A, K68N
apparent Kd (screen): 0.653 nM

B9: L25D (designed binder)
chain: B1 chain with C9A, L25D
apparent Kd (screen): 2.73 nM

B10: A51M (designed binder)
chain: B1 chain with C9A, A51M
apparent Kd (screen): 0.49 nM

B11: A35G (designed binder)
chain: B1 chain with C9A, A35G
apparent Kd (screen): 1.16 nM

B12: E19K (designed binder)
chain: B1 chain with C9A, E19K
apparent Kd (screen): 0.49 nM

B13: E42H (designed binder)
chain: B1 chain with C9A, E42H
apparent Kd (screen): 5.84 nM

B14: E37C (designed binder)
chain: B1 chain with C9A, E37C
apparent Kd (screen): 0.49 nM

B15: Y50V (designed binder)
chain: B1 chain with C9A, Y50V
apparent Kd (screen): 0.0802 nM

B16: E26N (designed binder)
chain: B1 chain with C9A, E26N
apparent Kd (screen): 0.593 nM

B17: A55F (designed binder)
chain: B1 chain with C9A, A55F
apparent Kd (screen): 11.4 nM

B18: M58K (designed binder)
chain: B1 chain with C9A, M58K
apparent Kd (screen): 16.7 nM

B19: L94M (designed binder)
chain: B1 chain with C9A, L94M
apparent Kd (screen): 1.86 nM

B20: L79G (designed binder)
chain: B1 chain with C9A, L79G
apparent Kd (screen): 2.48 nM

B21: I98P (designed binder)
chain: B1 chain with C9A, I98P
apparent Kd (screen): 1.86 nM

B22: V102L (designed binder)
chain: B1 chain with C9A, V102L
apparent Kd (screen): 3 nM

B23: Y101L (designed binder)
chain: B1 chain with C9A, Y101L
apparent Kd (screen): 0.405 nM

B24: E19P (designed binder)
chain: B1 chain with C9A, E19P
apparent Kd (screen): 22.2 nM

B25: E54K (designed binder)
chain: B1 chain with C9A, E54K
apparent Kd (screen): 8.56 nM

B26: K17M (designed binder)
chain: B1 chain with C9A, K17M
apparent Kd (screen): 0.79 nM

B27: R65A (designed binder)
chain: B1 chain with C9A, R65A
apparent Kd (screen): 1.27 nM

B28: L40K (designed binder)
chain: B1 chain with C9A, L40K
apparent Kd (screen): 0.446 nM

B29: V74L (designed binder)
chain: B1 chain with C9A, V74L
apparent Kd (screen): 0.49 nM

B30: K41W (designed binder)
chain: B1 chain with C9A, K41W
apparent Kd (screen): 0.446 nM

B31: E83S (designed binder)
chain: B1 chain with C9A, E83S
apparent Kd (screen): 0.869 nM

B32: Y13M (designed binder)
chain: B1 chain with C9A, Y13M
apparent Kd (screen): 0.593 nM

B33: E82N (designed binder)
chain: B1 chain with C9A, E82N
apparent Kd (screen): 1.86 nM

B34: T57R (designed binder)
chain: B1 chain with C9A, T57R
apparent Kd (screen): 0.49 nM

B35: F39V (designed binder)
chain: B1 chain with C9A, F39V
apparent Kd (screen): 4.39 nM

B36: A106Y (designed binder)
chain: B1 chain with C9A, A106Y
apparent Kd (screen): 2.73 nM

B37: E104G (designed binder)
chain: B1 chain with C9A, E104G
apparent Kd (screen): 0.446 nM

B38: L99F (designed binder)
chain: B1 chain with C9A, L99F
apparent Kd (screen): 9.41 nM

B39: E4G (designed binder)
chain: B1 chain with E4G, C9A
apparent Kd (screen): 0.718 nM

B40: K52M (designed binder)
chain: B1 chain with C9A, K52M
apparent Kd (screen): 0.446 nM

B41: K68L (designed binder)
chain: B1 chain with C9A, K68L
apparent Kd (screen): 2.73 nM

B42: V6G (designed binder)
chain: B1 chain with V6G, C9A
apparent Kd (screen): 2.48 nM

B43: A30D (designed binder)
chain: B1 chain with C9A, A30D
apparent Kd (screen): 1.4 nM

B44: K15E (designed binder)
chain: B1 chain with C9A, K15E
apparent Kd (screen): 0.869 nM

B45: K56T (designed binder)
chain: B1 chain with C9A, K56T
apparent Kd (screen): 3 nM

B46: E78N (designed binder)
chain: B1 chain with C9A, E78N
apparent Kd (screen): 2.73 nM

B47: S77I (designed binder)
chain: B1 chain with C9A, S77I
apparent Kd (screen): 11.4 nM

B48: E4N (designed binder)
chain: B1 chain with E4N, C9A
apparent Kd (screen): 0.539 nM

B49: K107D (designed binder)
chain: B1 chain with C9A, K107D
apparent Kd (screen): 0.0498 nM

B50: L75K (designed binder)
chain: B1 chain with C9A, L75K
apparent Kd (screen): 1.69 nM

B51: L79V (designed binder)
chain: B1 chain with C9A, L79V
apparent Kd (screen): 1.27 nM

B52: K69G (designed binder)
chain: B1 chain with C9A, K69G
apparent Kd (screen): 2.25 nM

B53: E34W (designed binder)
chain: B1 chain with C9A, E34W
apparent Kd (screen): 0.446 nM

B54: E49R (designed binder)
chain: B1 chain with C9A, E49R
apparent Kd (screen): 0.956 nM

B55: A105V (designed binder)
chain: B1 chain with C9A, A105V
apparent Kd (screen): 1.16 nM

B56: I21Y (designed binder)
chain: B1 chain with C9A, I21Y
apparent Kd (screen): 0.446 nM

B57: A63Q (designed binder)
chain: B1 chain with C9A, A63Q
apparent Kd (screen): 1.4 nM

B58: V74R (designed binder)
chain: B1 chain with C9A, V74R
apparent Kd (screen): 5.31 nM

B59: E19N (designed binder)
chain: B1 chain with C9A, E19N
apparent Kd (screen): 0.446 nM
